Molecular target: T1, Yeast wild-type ribosomal protein L3 (rpl3), in vitro synthesized, free form (Saccharomyces cerevisiae (yeast), UniProt P14126 1-387)
T1 construct: also called wild-type L3; radiolabeled L3
Experiment: co-immunoprecipitation, isolated proteins in vitro

T1 sequence (P14126 whole entry): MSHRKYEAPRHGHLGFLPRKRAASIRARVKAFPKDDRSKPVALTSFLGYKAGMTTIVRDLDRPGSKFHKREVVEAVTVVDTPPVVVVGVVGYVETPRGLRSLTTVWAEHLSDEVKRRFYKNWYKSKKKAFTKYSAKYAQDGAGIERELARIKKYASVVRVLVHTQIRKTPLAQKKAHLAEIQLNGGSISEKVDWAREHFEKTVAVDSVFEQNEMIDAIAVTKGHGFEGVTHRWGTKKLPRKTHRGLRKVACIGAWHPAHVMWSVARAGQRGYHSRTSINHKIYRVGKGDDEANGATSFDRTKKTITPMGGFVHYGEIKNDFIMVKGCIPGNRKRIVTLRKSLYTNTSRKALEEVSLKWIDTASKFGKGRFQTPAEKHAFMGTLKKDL

B1: Pokeweed antiviral protein (PAP) (enzyme)
chain: VNTIIYNVGSTTISKYATFLNDLRNEAKDPSLKCYGIPMLPNTNTNPKYVLVELQGSNKKTITLMLRRNNLYVMGYSDPFETNKCRYHIFNDISGTERQDVETTLCPNANSRVSKNINFDSRYPTLESKAGVKSRSQVQLGIQILDSNIGKISGVMSFTEKTEAEFLLVAIQMVSEAARFKYIENQVKTNFNRAFNPNPKVLNLQETWGKISTAIHDAKNGVLPKPLELVDASGAKWIVLRVDEIKPDVALLNYVGGSCQTTY
notes: mature
B1: binds.

Reference: patent publication US20050114927A1 (RUTGERS THE STATE UNIVERSITY, published 2005)
